In US20170189504A1 one finds peptide exchange yield data, which are given here for 49 molecules.

The target in the experiment is HLA-A*24 (human). As to the kind of experiment: UV-ligand exchange, anti-b2m ELISA. (In general: ELISA stands for enzyme-linked immunosorbent assay.)
Molecule IYKVGAPTI [SEQ ID NO: 185 peptide …] gave a peptide exchange yield of 50 to 75%.
The molecule KYMVYPQTF [SEQ ID NO: 267 peptide …] had a peptide exchange yield above 75%.
Consider EYQENFLSF [SEQ ID NO: 206 peptide …], for which the peptide exchange yield is 50 to 75%.
The result for TYTQDFNKF [SEQ ID NO: 208 peptide …] reads 50 to 75%; that for KYIPYKYVI [SEQ ID NO: 223 peptide …], 50 to 75%.
With EYPLVINTL [SEQ ID NO: 219 peptide …] the figure was 50 to 75%.
For YFDKVVTL [SEQ ID NO: 215 peptide YFDKVVTL], the peptide exchange yield lay within 20 to 49%.
RYFKGLVF [SEQ ID NO: 188 peptide RYFKGLVF]: the peptide exchange yield was 50 to 75%.
The result for IYDDSFIRPVTF [SEQ ID NO: 180 peptide …] reads 50 to 75%; that for RYSTGLAGNLL [SEQ ID NO: 221 peptide …], 50 to 75%.
The result for LYHDIFSRL [SEQ ID NO: 271 peptide …] reads above 75%; that for IFLDYEAGTLSF [SEQ ID NO: 227 peptide …], above 75%.
With VYRDETGELF [SEQ ID NO: 226 peptide …], the peptide exchange yield lay in the range of 50 to 75%.
In turn, WYVNGVNYF [SEQ ID NO: 189 peptide …] displayed a peptide exchange yield of 20 to 49%.
Take YYLEVGKTLI [SEQ ID NO: 211 peptide …]: the peptide exchange yield is above 75%.
Consider IYQLDTASI [SEQ ID NO: 182 peptide …], for which the peptide exchange yield lay within 50 to 75%.
GFFIFNERF [SEQ ID NO: 190 peptide …] showed a peptide exchange yield of 50 to 75%.
With QYLQDAYSF [SEQ ID NO: 272 peptide …], the peptide exchange yield is above 75%.
The result for RYPDNLKHLYL [SEQ ID NO: 280 peptide …] reads above 75%.
TYTTVPRVAF [SEQ ID NO: 172 peptide …]: the peptide exchange yield was above 75%.
In the case of KYTSWYVAL [SEQ ID NO: 228 peptide …], the peptide exchange yield was above 75%.
As for TYIKPISKL [SEQ ID NO: 273 peptide …], the peptide exchange yield lay in the range of 50 to 75%.
RYISDQLFTNF [SEQ ID NO: 278 peptide …]: the peptide exchange yield is above 75%.
Regarding TYIESASEL [SEQ ID NO: 279 peptide …], the peptide exchange yield was 50 to 75%.
As for SYALLTYMI [SEQ ID NO: 192 peptide …], the peptide exchange yield was above 75%.
The molecule YYVYIMNHL [SEQ ID NO: 225 peptide …] gave a peptide exchange yield of 50 to 75%.
Take VFQNFPLLF [SEQ ID NO: 184 peptide …]: the peptide exchange yield is above 75%.
As to VFKASKITF [SEQ ID NO: 191 peptide …], the peptide exchange yield lay in the range of 50 to 75%.
With RFHPTPLLL [SEQ ID NO: 193 peptide …] the figure was above 75%.
KFVDSTFYL [SEQ ID NO: 282 peptide …] displayed a peptide exchange yield above 75%.
With QYSSVFKSL [SEQ ID NO: 216 peptide …] the figure was above 75%.
The molecule QYLENLEKL [SEQ ID NO: 224 peptide …] registered a peptide exchange yield of 50 to 75%.
Consider EYINQGDLHEF [SEQ ID NO: 275 peptide …], for which the peptide exchange yield lay in the range of 50 to 75%.
IFPQFLYQF [SEQ ID NO: 186 peptide …] came in with a peptide exchange yield above 75%.
In turn, LYLDIINLF [SEQ ID NO: 181 peptide …] had a peptide exchange yield above 75%.
As for VHIPEVYLI [SEQ ID NO: 205 peptide …], the peptide exchange yield was 50 to 75%.
VFTSTARAF [SEQ ID NO: 183 peptide …] showed a peptide exchange yield of 50 to 75%.
In turn, EFGSLHLEFL [SEQ ID NO: 194 peptide …] returned a peptide exchange yield below 20%.
The result for FYSRLLQKF [SEQ ID NO: 203 peptide …] reads 50 to 75%.
Consider VYGFQWRHF [SEQ ID NO: 276 peptide …], for which the peptide exchange yield was above 75%.
As to TYLRDQHFL [SEQ ID NO: 187 peptide …], the peptide exchange yield is above 75%.
AYLHSHALI [SEQ ID NO: 274 peptide …] gave a peptide exchange yield above 75%.
Consider LYLKLWNLI [SEQ ID NO: 214 peptide …], for which the peptide exchange yield is 50 to 75%.
With FFPPTRQMGLLF [SEQ ID NO: 217 peptide …], the peptide exchange yield was above 75%.
LYLDKATLI [SEQ ID NO: 198 peptide …] registered a peptide exchange yield of 50 to 75%.
With IFIEVFSHF [SEQ ID NO: 178 peptide …] the figure was 50 to 75%.
Molecule IYTMIYRNL [SEQ ID NO: 210 peptide …] came in with a peptide exchange yield above 75%.
As for VYPWLGALL [SEQ ID NO: 177 peptide …], the peptide exchange yield was above 75%.
The result for MYDSYWRQF [SEQ ID NO: 179 peptide …] reads above 75%.
